Measured values reported in article PMC3320033 (Virology, 2012).

B1: Sf6 portal protein (gp3) (natural protein, bacteriophage Sf6, UniProt Q716H2 1-708, looked up)
chain: MAETLEKKHERIMLRFDRAYSPQKEVREKCIEATRFARVPGGQWEGATAAGTKLDEQFEKYPKFEINKVATELNRIIAEYRNNRITVKFRPGDREASEELANKLNGLFRADYEETDGGEACDNAFDDAATGGFGCFRLTSMLVNEYDPMDDRQRIAIEPIYDPSRSVWFDPDAKKYDKSDALWAFCMYSLSPEKYEAEYGKKPPTSLDVTSMTSWEYNWFGADVIYIAKYYEVRKESVDVISYRHPITGEIATYDSDQVEDIEDELAIAGFHEVARRSVKRRRVYVSVVDGDGFLEKPRRIPGEHIPLIPVYGKRWFIDDIERVEGHIAKAMDPQRLYNLQVSMLADTAAQDPGQIPIVGMEQIRGLEKHWEARNKKRPAFLPLREVRDKSGNIIAGATPAGYTQPAVMNQALAALLQQTSADIQEVTGGSQAMQQMPSNIAQETVNNLMNRADMASFIYLDNMAKSLKRAGEVWLSMAREVYGSEREVRIVNEDGSDDIAVLSAQVVDRQTGAVVALNDLSVGRYDVTVDVGPSYTARRDATVSVLTNVLSSMLPTDPMRPAIQGIILDNIDGEGLDDFKEYNRNQLLISGIAKPRNEKEQQIVQQAQMAAQSQPNPEMVLAQAQMVAAQAEAQKATNETAQTQIKAFTAQQDAMESQANTVYKLAQARNIDDKAVMEAIRLLKDVAESQQQQFQSPPQSPADLMPS
B2: Sf6 tail plug protein gp8 (natural protein, bacteriophage Sf6, UniProt Q716G7 1-472, looked up)
chain: MPIQQLPLMKGVGKDFRNADYIDYLPVNMLATPKEILNSSGYLRSFPGIAKRSDVNGVSRGVEYNMAQNAVYRVCGGKLYKGESEVGDVAGSGRVSMAHGRTSQAVGVNGQLVEYRYDGTVKTVSNWPTDSGFTQYELGSVRDITRLRGRYAWSKDGTDSWFITDLEDESHPDRYSAQYRAESQPDGIIGIGTWRDFIVCFGSSTIEYFSLTGATTAGAALYVAQPSLMVQKGIAGTYCKTPFADSYAFISNPATGAPSVYIIGSGQVSPIASASIEKILRSYTADELADGVMESLRFDAHELLIIHLPRHVLVYDASSSANGPQWCVLKTGLYDDVYRAIDFIYEGNQITCGDKLESVTGKLQFDISSQYGLQQEHLLFTPLFKADNARCFDLEVESSTGVAQYADRLFLSATTDGINYGREQMIEQNEPFVYDKRVLWKRVGRIRKNVGFKLRVITKSPVTLSGAQIRIE
B3: Sf6 tail plug protein gp7 (natural protein, bacteriophage Sf6, UniProt Q716G8 1-160, looked up)
chain: MATVLTKGEIVLFALRKFAIASNASLTDVEPQSIEDGVNDLEDMMSEWMINPGDIGYAFATGDEQPLPDDESGLPRKYKHAVGYQLLLRMLSDYSLEPTPQVLSNAQRSYDALMTDTLVVPSMRRRGDFPVGQGNKYDVFTSDRYYPGDLPLIDGDIPNA
B4: Sf6 tail needle (gp9) (natural protein, bacteriophage Sf6, UniProt Q716G6 1-282, looked up)
chain: MADSNLNVPVIIQATRLDTSVLPRNIFSQSYLLYVIAQGTDVGNVANKANEAGQGAYDAQVRNDEQDVILADHEQRISAAEATLVNHEERIRQAESTLQDHETRIAQNESDISSLDTRVQSLESQVSDHETRIDALEYATTRKKSEVVYSGVSVTIPTAPTNLVSLLKTLTPSSGTLAPFFDTVNNKMVVFNENKTLFFKLSIVGTWPSGTANRSMQLTFSGSVPDTLVSSRNSATTTDNILLATFFSVDKDGFLATNGSTLTIQSNGASFTATTIKIIAEQ

Molecular target: the molecule itself
Experiment: cryo-EM structure

Protein | stoichiometry N
B1 | 12
B2 | 6
B3 | 12
B4 | 3
